Laboratory results taken from patent publication US20080160035A1 (Regeneron, published 2008).

Target: T1, hIL-4R (human, UniProt P24394 26-232)
T1 construct: also called human IL-4 receptor; antigen
T1 sequence (looked up): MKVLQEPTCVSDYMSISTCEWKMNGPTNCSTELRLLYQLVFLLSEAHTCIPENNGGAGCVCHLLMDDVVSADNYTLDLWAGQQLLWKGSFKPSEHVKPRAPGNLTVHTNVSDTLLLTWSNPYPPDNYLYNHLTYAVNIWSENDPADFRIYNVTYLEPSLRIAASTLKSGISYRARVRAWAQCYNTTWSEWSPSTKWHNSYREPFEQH
Assay: screen of hybridoma conditioned media

- binding result: binds
B1: VAB 13A1-6 (antibody, V domains shown)
VH: EVQLVESGGGLVQPGRSLRLSCAASGFTFDNYAMHWVRQAPGKGLEWVSGIRWNSGSIGYADSVKGRFTISRDNAKNSLYLQMNSLRAEDTALYYCAKEGGYSGYRPGPFFDYWGQGTLVTVSS
VL: EIVMTQSPATLSVSPGERATLSCRASQSVNYNLAWYQHKPGQAPRLLIYGASTRATGIPARFSGSGSGTEFTLTISSLQSEDFAVYYCQQYNNWPLTFGGGTKVEIK
